Data on 1 molecule can be found in paper doi:10.1101/2023.08.30.555640 (bioRxiv, 2023).

The target of the assay is Wildtype human ubiquitin (human, UniProt P0CG47 1-76). In words: NMR titration.

Regarding PEVRFQQQLEQLNAMGFLNREANLQALIATGGDINAAIERLLGS (domain or fragment) [human ubiquilin2 UBA domain (residues 578 to 621)], the binding result is “binds”.
